Test results as given in patent publication US20230183353A1 (ZYDUS LIFESCIENCES, published 2023).

Tests used:
[1] = target: T1, recombinant human neonatal Fc receptor (rhFcRn) (human, UniProt P55899 24-297; P61769 21-119); experiment: SPR (ProteOn XPR36), rhFcRn immobilised on GLC chip, pH 6.0, 25 C
T1 construct: Bought recombinant protein (Sino Biologics), immobilised on a GLC chip; also called Human FcRn; FcRn/FcGRT
Method: The kinetic constants for the binding of Fc variants to recombinant human neonatal Fc receptor (rhFcRn) were determined by Surface Plasmon Resonance-based measurement using the ProteOn™ XPR36 (Bio-Rad). The rhFcRn receptor (Sino Biologics) was immobilized on a GLC chip following manufacturer's instruction. 10 mM phosphate buffer saline (PBS) (10 mM phosphate buffer, pH 6.0, 150 mM NaCl, with 0.005% Tweet 20) was used as running buffer to carry out the kinetic measurements. […] Reactions were carried in PBS (pH 6.0, 0.005% surfactant P20) at 25° C. After each sample run, the chip surface was regenerated using two pulses of PBS (0.005% surfactant P20), pH 7.4, followed by one pulse of glycine buffer pH 1.5. The data, in the form of sensograms, was analysed using the data-fitting programs in the ProteOn™ system.

recombinant mouse FcRn = recombinant mouse FcRn (mouse, UniProt Q61559 22-297); experiment: SPR (ProteOn XPR36), FcRn immobilised on GLC chip by amine coupling, pH 6.0, 25 C
Method: (§1) In this experiment, binding of the Fc variant of the current invention to FcRn of different species was determined by surface plasmon resonance-based measurement using the ProteOn™ XPR36 (Bio-Rad). […] Fc variant used to conduct this experiment was produced using CHO cell as an expression system. FcRn (of different species) was immobilized on a GLC sensor chip surface using a standard amine coupling chemistry, and essentially, following the manufacturers' instruction. 10 mM phosphate buffered saline (PBS) (10 mM phosphate buffer, pH 6.0, 150 mM NaCl, 0.005% Tween 20) was used as the running buffer to carry out the kinetic measurements. To measure the association rate constant (kassoc) and dissociation rate constant (kdissoc), five dilutions of Fc muteins were prepared in above mentioned running buffer and injected at a flow rate of 100 μL/min with an association time of 180 s and dissociation time of 600 s. All the reactions were carried at 25° C. After each sample run, the chip surface was regenerated using PBST, pH 7.4. The data, in the form of sensorgrams, was analyzed using the data-fitting programs in the ProteOn™ system.

recombinant monkey FcRn = recombinant monkey FcRn (monkey); experiment: as above
Method: as §1

[2] = target: T1, recombinant human neonatal Fc receptor …; experiment: as above
Method: as §1

[3] = target: T2, recombinant human FcγRIIIa (Val) (human, UniProt P08637 17-208, limits assumed); experiment: SPR (ProteOn), receptor immobilised on GLC chip by amine coupling, pH 7.4, 25 C
T2 construct: Directly immobilised on a GLC chip by amine coupling; also called FcγRIIIa V158; CD16a
Method: (§2) In this experiment, the kinetic constants for the binding of Fc variant to recombinant Fc gamma receptors were determined by Surface Plasmon Resonance-based measurement using the ProteOn™ […] (Bio-Rad). […] All the recombinant human Fc receptors were directly immobilized on a GLC sensor chip surface using a standard amine coupling chemistry, and essentially, following the manufacturers' instruction. 10 mM phosphate buffered saline (PBS) (10 mM phosphate buffer, pH 7.4, 150 mM NaCl, with 0.005% Tween 20) was used as the running buffer to carry out the kinetic measurements for all the Fc receptor. To measure the association rate constant (kassoc) and dissociation rate constant (kdissoc), five dilutions of Fc variants were prepared in above mentioned running buffer and injected at a flow rate of 50 μL/min. Association time and dissociation time at each interaction is mentioned in table below. All the reactions were performed at 25° C. The data, in the form of sensorgrams, were analyzed using the data-fitting programs available with the ProteOn™ system.

[4] = target: T3, recombinant human FcγRIIIa (Phe) (human, UniProt P08637 17-208, limits assumed); experiment: as above
T3 construct: Directly immobilised on a GLC chip by amine coupling; also called FcγRIIIa F158; CD16a
Method: as §2

recombinant mouse FcRn, sequence (Q61559 22-297): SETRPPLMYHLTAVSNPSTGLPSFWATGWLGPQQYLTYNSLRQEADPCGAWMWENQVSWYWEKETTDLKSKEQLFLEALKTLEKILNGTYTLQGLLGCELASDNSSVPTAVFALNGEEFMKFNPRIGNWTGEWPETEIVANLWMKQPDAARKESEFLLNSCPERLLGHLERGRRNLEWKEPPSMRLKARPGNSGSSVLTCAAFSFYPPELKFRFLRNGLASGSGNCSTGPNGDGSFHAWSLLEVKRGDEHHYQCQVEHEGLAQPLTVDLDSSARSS
T2 sequence (P08637 17-208 F176V limits assumed): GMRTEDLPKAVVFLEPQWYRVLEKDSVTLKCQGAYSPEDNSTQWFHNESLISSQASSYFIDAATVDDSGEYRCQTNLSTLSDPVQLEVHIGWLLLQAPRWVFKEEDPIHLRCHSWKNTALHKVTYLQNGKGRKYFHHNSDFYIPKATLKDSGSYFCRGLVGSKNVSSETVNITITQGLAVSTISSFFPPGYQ
T3 sequence (P08637 17-208 limits assumed): as the sequence (P08637 17-208 F176V limits assumed) above, with V160F counted along it
recombinant monkey FcRn (monkey), sequence (Q8SPV9 24-297, chain 1 of 2): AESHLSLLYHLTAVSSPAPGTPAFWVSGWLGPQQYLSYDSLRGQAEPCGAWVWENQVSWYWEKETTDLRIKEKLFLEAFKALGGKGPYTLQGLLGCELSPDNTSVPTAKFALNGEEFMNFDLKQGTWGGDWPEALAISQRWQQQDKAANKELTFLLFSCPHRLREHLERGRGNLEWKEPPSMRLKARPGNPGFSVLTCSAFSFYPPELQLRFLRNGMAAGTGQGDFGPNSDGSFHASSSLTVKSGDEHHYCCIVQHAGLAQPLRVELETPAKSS
recombinant monkey FcRn (monkey), sequence (Q8SPW0 21-119, chain 2 of 2, further chain): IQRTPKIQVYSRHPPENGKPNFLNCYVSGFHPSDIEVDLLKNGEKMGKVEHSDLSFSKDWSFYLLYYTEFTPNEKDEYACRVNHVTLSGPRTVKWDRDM

Row | Kd [1] | Kd (recombinant mouse FcRn) | Kd (recombinant monkey FcRn) | Kd [2] | Kd [3] | Kd [4] | Binder
1 | 3.63 nM | – | – | – | – | – | Fc variant F3-9 (SEQ ID No. 20; L432M/H433P/N434F) (other) DKTHTCPPCPAPELLGGPSVFLFPPKPKDTLMISRTPEVTCVVVDVSHEDPEVKFNWYVDGVEVHNAKTKPREEQYNSTYRVVSVLTVLHQDWLNGKEYKCKVSNKALPAPIEKTISKAKGQPREPQVYTLPPSRDELTKNQVSLTCLVKGFYPSDIAVEWESNGQPENNYKTTPPVLDSDGSFFLYSKLTVDKSRWQQGNVFSCSVMHEAMPFHYTQKSLSLSPGK
2 | 0.288 nM | 0.615 nM | 0.801 nM | 0.791 nM | 205 nM | 241 nM | Fc variant H11+A4 (SEQ ID No. 22; T307N/V308P/L309Y/H433R/N434W), Fc monomer (other, also called 22b) DKTHTCPPCPAPELLGGPSVFLFPPKPKDTLMISRTPEVTCVVVDVSHEDPEVKFNWYVDGVEVHNAKTKPREEQYNSTYRVVSVLNPYHQDWLNGKEYKCKVSNKALPAPIEKTISKAKGQPREPQVYTLPPSRDELTKNQVSLTCLVKGFYPSDIAVEWESNGQPENNYKTTPPVLDSDGSFFLYSKLTVDKSRWQQGNVFSCSVMHEALRWHYTQKSLSLSPGK
